{"source": "patent US20200325220A1", "about": "(INSTITUTE FOR RESEARCH IN BIOMEDICINE, published 2020)", "binders": {"B1": {"name": "FI174 (antibody, V domains shown)", "VH": "QVQLVQSGAEVRKPGSSVKVSCKTSGGIIRKYALSWVRQAPGQGLEWMGGIIAIFGTTNYAQKFQGRVTINADESTSTVYLELSSLTSEDTAIYYCAGSATYYESRFDYWGQGTLVTVSS", "VL": "EIVLTQSPGTLSLSPGARATLSCRASQSVSSSSLAWYQQKPGQAPRLLIYDASSRATGIPDRFSGSGSGTDFTLTISRLEPEDFAVYYCHQYGDSRKTFGQGTKVEIKR", "notes": "also called F1174; FI74"}}, "target": "T1, tetanus toxoid (UniProt P04958 2-1315)", "T1 construct": "also called TT", "T1 sequence (P04958 2-457 limits assumed, chain 1 of 2)": "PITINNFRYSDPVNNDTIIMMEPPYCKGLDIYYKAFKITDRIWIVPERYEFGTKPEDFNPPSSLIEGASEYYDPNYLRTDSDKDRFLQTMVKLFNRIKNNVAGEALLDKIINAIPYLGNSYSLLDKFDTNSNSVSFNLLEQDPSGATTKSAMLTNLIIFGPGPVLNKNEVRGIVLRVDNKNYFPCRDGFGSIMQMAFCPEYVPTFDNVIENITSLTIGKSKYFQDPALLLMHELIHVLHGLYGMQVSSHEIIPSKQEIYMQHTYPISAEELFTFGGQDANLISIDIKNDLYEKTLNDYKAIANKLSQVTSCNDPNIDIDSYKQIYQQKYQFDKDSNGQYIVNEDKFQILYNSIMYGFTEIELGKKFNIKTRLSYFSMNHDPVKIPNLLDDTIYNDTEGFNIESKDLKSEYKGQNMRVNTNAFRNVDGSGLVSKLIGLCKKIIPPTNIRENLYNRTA", "T1 sequence (P04958 458-1315 limits assumed, chain 2 of 2)": "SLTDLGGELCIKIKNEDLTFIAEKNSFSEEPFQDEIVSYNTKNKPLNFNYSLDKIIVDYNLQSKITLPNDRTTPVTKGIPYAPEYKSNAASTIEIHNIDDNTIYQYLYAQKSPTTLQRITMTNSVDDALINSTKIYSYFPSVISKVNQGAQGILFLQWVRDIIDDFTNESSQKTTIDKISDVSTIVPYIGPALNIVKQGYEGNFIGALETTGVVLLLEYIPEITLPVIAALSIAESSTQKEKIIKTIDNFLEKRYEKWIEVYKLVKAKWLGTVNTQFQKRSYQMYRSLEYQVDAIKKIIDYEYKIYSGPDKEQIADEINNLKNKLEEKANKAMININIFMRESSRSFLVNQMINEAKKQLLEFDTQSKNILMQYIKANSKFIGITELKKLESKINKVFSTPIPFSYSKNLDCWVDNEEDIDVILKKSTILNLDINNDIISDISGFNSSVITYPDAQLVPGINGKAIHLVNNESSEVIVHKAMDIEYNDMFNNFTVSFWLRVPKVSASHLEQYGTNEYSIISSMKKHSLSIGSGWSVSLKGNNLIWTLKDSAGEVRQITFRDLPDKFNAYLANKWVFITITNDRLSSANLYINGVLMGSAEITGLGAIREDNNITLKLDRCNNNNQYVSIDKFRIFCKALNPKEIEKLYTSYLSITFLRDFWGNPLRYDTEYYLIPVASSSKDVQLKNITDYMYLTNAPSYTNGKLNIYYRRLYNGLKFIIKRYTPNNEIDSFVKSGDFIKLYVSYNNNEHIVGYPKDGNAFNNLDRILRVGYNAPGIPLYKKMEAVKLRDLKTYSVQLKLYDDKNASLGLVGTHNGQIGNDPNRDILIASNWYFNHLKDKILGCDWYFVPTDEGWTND", "assay": "SPR, antibody captured on protein A, H1 then TT", "data": [{"binder": "B1", "values": [{"measurement": "binding result", "result": "no binding (tested: tetanus toxoid 50 nM)"}]}]}
